Measured values reported in patent US20240141025A1 (PROTHENA BIOSCIENCES, published 2024).
Where a chain is given by its changes, count along the chain named. Where two headings read alike, the source gives them in different places.

Assays:
[1] = target: T1, recombinant human TTR F87M/L110M (human, UniProt P02766 21-147); test: SPR (Biacore), mAb captured on anti-human chip, TTR F87M/L110M as analyte
[2] = target: T1, recombinant human TTR F87M/L110M; test: as above; remark: listed apart in the source

B1: Hu14G8 H2L1 (antibody, human IgG1, kappa, V domains shown)
VH: EVQLVESGGGLVQPGGSLKLSCAASGFTFSSYTMSWVRQTPEKRLELVAEINNSGDTTYYPDTVKGRFTISRDNAKNTLYLQMSSLKSEDTAMYYCARHYYYGGGYGGWFFDVWGQGTLVTVSS
VL: DIVMTQSAPSLPVTPGESVSISCRSNKSLLHSNGNTYLYWFLQKPGQSPQLLIYRVSNLASGVPDRFSGSGSGTAFTLKISRVEAEDVGVYYCMQHLEYPLTFGQGTKLEIKR
notes: also called humanized 14G8 VHv2/VLv1
In the case of B1, the Kd [1] is reported as 2.26 nM, the koff [1] is reported as 0.000693 s⁻¹ and the kon [1] is reported as 307000 M⁻¹ s⁻¹.

B2: Hu14G8 H2L2 (antibody, human IgG1, kappa, V domains shown)
VH: B1 VH
VL: B1 VL with A8P, P9L, S18P, V19A, A75D
notes: also called humanized 14G8 VHv2/VLv2
With B2 the Kd [1] was 2.1 nM, the koff [1] was 0.000683 s⁻¹ and the kon [1] was 326000 M⁻¹ s⁻¹.

B3: Hu14G8 H2L3 (antibody, human IgG1, kappa, V domains shown)
VH: B1 VH
VL: B1 VL with A8P, P9L, S18P, V19A, N26S, D65S, A75D
notes: also called humanized 14G8 VHv2/VLv3
B3 was tested, and the Kd [1] was 1.24 nM, the koff [1] was 0.000318 s⁻¹ and the kon [1] was 252000 M⁻¹ s⁻¹.

B4: Hu14G8 H3L1 (antibody, human IgG1, kappa, V domains shown)
VH: B1 VH with S84N, K87R, S88A, M93V
VL: B1 VL
notes: also called humanized 14G8 VHv3/VLv1
Work on B4 yielded a Kd [1] of 1.76 nM, a koff [1] of 0.000677 s⁻¹ and a kon [1] of 386000 M⁻¹ s⁻¹.

B5: Hu9D5 H3L1 (antibody, human IgG1, kappa, V domains shown)
VH: EVQLVESGGGLVQPGGSLRLSCAASGFTFSSYTMSWVRQAPGKGLEWVSEISNSGDTTYYPDTVKGRFTFSRDNAKNSLYLQSNLLRAEDTAVYYCARHYYYGGGYGGWFFDVWGQGTTVTVSS
VL: B1 VL with A8P, P9L, S18P, V19A, N26S, A75D
notes: also called humanized 9D5 VHv3/VLv1
Work on B5 yielded a Kd [2] of 4.32 nM, a koff [2] of 0.000657 s⁻¹ and a kon [2] of 152000 M⁻¹ s⁻¹.

B6: Hu9D5 H2L5 (antibody, human IgG1, kappa, V domains shown)
VH: B5 VH with W47L, S49A
VL: B1 VL with N26S, K44R, D65S, K79R
notes: also called humanized 9D5 VHv2/VLv5
In the case of B6, the Kd [2] is reported as 6.84 nM, the koff [2] is reported as 0.000785 s⁻¹ and the kon [2] is reported as 115000 M⁻¹ s⁻¹.

B7: Hu9D5 H4L1 (antibody, human IgG1, kappa, V domains shown)
VH: B5 VH with F70I
VL: B1 VL with A8P, P9L, S18P, V19A, N26S, A75D
notes: also called humanized 9D5 VHv4/VLv1
Binder B7 has a Kd [2] of 2.09 nM, a koff [2] of 0.000533 s⁻¹ and a kon [2] of 254000 M⁻¹ s⁻¹.
